# Article PMC11630628 (Molecular Plant, 2024)
# Ends that are not written are not given here. * marks the point of attachment. 5FAM = O=C1OC2(c3ccc(O)cc3Oc3cc(O)ccc32)c2ccc(C(=O)*)cc21
# T1: MIK2 ectodomain (MIK2^LRR, residues 45-707) fused with a 6x His-MBP tag (Arabidopsis thaliana), Q8VZG8
# T1 chain: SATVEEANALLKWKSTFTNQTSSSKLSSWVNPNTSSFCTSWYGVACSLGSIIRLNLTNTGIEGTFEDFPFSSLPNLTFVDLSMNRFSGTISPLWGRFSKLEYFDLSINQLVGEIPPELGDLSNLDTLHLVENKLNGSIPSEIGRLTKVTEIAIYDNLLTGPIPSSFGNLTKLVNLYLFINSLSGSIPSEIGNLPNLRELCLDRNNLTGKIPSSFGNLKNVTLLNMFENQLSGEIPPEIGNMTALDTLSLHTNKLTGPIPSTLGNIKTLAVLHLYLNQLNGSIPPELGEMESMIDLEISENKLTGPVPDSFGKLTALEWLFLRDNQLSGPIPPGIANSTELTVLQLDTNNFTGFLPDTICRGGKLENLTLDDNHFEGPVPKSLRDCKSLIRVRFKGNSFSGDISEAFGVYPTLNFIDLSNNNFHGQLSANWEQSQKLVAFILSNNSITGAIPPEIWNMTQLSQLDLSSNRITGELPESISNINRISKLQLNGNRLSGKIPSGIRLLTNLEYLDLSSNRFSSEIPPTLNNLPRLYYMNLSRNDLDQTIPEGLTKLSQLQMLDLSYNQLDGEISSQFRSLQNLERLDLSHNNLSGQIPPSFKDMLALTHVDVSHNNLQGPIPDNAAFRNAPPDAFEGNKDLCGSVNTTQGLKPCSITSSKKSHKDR
# T2: MIK2 ectodomain (MIK2^LRR, residues 45-707) fused with a 6x His-MBP tag (Arabidopsis thaliana, UniProt Q8VZG8 45-707)
# T2 construct: ectodomain residues 45-707, without the putative N-terminal signal peptide; Cloned into pET41 with a 6x His-MBP tag; no cleavage of the tag is told; also called His-MBP-tagged MIK2^LRR; ectodomain of MIK2; source: E. coli BL21, purified (Mag-Beads His-Tag Protein Purification Kit)
# T2 sequence (looked up): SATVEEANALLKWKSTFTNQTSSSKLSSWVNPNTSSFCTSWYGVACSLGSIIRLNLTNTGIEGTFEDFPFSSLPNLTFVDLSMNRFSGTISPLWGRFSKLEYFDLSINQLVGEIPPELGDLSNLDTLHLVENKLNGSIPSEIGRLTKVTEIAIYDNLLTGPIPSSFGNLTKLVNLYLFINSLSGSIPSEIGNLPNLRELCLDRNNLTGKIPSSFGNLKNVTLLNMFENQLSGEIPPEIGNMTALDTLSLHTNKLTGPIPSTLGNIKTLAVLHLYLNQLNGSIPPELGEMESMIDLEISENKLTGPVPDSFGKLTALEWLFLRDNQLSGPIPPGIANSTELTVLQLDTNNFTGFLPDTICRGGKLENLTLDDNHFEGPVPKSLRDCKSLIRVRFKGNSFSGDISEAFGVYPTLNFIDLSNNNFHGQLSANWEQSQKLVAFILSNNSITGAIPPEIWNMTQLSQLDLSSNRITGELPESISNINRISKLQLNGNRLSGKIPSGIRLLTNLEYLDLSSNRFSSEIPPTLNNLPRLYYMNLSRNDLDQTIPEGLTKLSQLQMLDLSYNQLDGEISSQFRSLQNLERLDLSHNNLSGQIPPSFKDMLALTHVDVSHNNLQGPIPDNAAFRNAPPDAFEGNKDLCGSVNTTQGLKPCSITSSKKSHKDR
# T3: MIK2 ectodomain (MIK2^LRR, residues 45-707) fused with a 6x His-MBP tag (Arabidopsis thaliana, UniProt Q8VZG8 45-707)
# T3 chain: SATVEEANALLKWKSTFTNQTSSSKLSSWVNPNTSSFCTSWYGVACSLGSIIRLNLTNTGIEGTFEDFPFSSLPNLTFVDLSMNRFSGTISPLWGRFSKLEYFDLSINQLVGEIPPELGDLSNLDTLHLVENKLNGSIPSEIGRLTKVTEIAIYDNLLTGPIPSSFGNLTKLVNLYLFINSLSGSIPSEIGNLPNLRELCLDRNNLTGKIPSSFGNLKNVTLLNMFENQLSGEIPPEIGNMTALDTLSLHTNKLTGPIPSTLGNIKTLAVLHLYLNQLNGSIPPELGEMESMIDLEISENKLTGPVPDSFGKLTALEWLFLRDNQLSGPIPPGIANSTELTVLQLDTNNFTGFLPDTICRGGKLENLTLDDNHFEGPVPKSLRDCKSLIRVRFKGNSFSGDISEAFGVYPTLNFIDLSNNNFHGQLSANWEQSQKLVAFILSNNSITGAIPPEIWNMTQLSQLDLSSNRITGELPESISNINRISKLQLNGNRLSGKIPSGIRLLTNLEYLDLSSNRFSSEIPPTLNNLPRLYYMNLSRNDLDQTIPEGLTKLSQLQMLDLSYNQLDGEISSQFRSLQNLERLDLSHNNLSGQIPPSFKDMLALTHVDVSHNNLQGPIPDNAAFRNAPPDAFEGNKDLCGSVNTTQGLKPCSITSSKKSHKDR
# Tests used:
# [1] = tested on: leaf senescence in Arabidopsis; conditions: ref Gully et al., 2015; cited from earlier work
# Text: Senescence, a crucial biological event in plant development, involves the coordinated breakdown of cellular components to recycle nutrients, aiding adaptation to changing environments. It optimizes nutrient storage and reuse, particularly in leaves, the primary photosynthetic organs. Initiation of leaf senescence prompts various physiological changes, including chlorophyll (Chl) reduction and macromolecule degradation, enabling nutrient recycling that supports the growth of seeds and fruits ([Yang et al., 2014]; [Kim et al., 2018]; [Woo et al., 2019]; [Guo et al., 2021]). Efficient senescence ...
# [2] = tested on: ANJEA-FERONIA (ANJ–FER) receptor complex; design: method as in Liu et al., 2021; conditions: ref Liu et al., 2021; cited from earlier work
# [3] = tested on: FERONIA (FER) / EFR/FLS2-BAK1 complex; design: method as in Stegmann et al., 2017; conditions: ref Stegmann et al., 2017; cited from earlier work
# [4] = molecular target: T1, MIK2 ectodomain (MIK2^LRR, residues …); test: MST; Figure 5F, competition: 0.5 μM FAM-SCOOP10 and 15 μM MIK2^LRR mixed 10 min at room temperature in the dark, then a range of concentrations of SCOOP12, 10 min; 20% LED power, 20% MST power; the reverse set-up (SCOOP10 on MIK2-SCOOP12) is not described
# [5] = molecular target: T2, MIK2 ectodomain (MIK2^LRR, residues …); test: MST; Monolith NT.115; 0.05 μM 5-FAM-labelled peptide, MIK2^LRR diluted from 20 μM in ddH2O, 10 min at room temperature; 20% LED power, 40% MST power; conditions: both partners purified
# [6] = molecular target: T3, MIK2 ectodomain (MIK2^LRR, residues …); test: MST; in presence of competitor SCOOP10
# [7] = molecular target: T2, MIK2 ectodomain (MIK2^LRR, residues …); test: MST; Figure 5F, titrations in the absence of the competing peptide; conditions of these titrations not told apart from the others; conditions: both partners purified
# [8] = molecular target: T3, MIK2 ectodomain (MIK2^LRR, residues …); test: MST; in presence of competitor SCOOP12
molecule,measurement,setting,value
"plant elicitor peptide PEP1 (ATKVKAKQRGKEKVSSGRPGQHN; Elicitor peptide 1; UniProt Q9LV87 70-92, looked up) [plant elicitor peptide, one of the first plant phytocytokines]",leaf senescence modulation,[1],function as a leaf senescence modulator in Arabidopsis
"RALF23: RAPID ALKALINIZATION FACTOR (RALF) peptide (ATRRYISYGALRRNTIPCSRRGASYYNCRRGAQANPYSRGCSAITRCRRS; Protein RALF-like 23; UniProt Q9LUS7 89-138, looked up)",competition with POLLEN COAT PROTEIN B-class peptides,[2],compete with the POLLEN COAT PROTEIN B-class peptides
same,effect on FER-mediated receptor complex assembly,[3],suppresses the formation of the EFR/FLS2-BAK1 complex
"PVRSSQSSQAGGR (modifications not checked) [SCOOP12 peptide (unlabeled, used as competitor), B3H7I1 44-78]",KD printed for the inhibition of the SCOOP10-MIK2 interaction by SCOOP12,[4],279000 nM
5FAM-PVRSSQSSQAGGR [SCOOP12 peptide labeled with 5-FAM at the N terminus (FAM-SCOOP12)],Kd,[5],22 ± 3.02 nM
same,Kd,[6],1160 nM
5FAM-PNGDIFTGPSGSGHGGGR [SCOOP10 peptide labeled with FAM at the N-terminus (5'-FAM-SCOOP10)],Kd,[5],13.5 ± 1.47 nM
same,Kd,[7],753 nM
same,Kd,[8],279000 nM
